# Test results: PMC1557793
# Where two headings read alike, the source gives them in different places.
# B1: T42 (ssDNA)
# DNA: TTTTTTTTTTTTTTTTTTTTTTTTTTTTTTTTTTTTTTTTTT
# B2: T20 (ssDNA)
# DNA: TTTTTTTTTTTTTTTTTTTT
# B3: T6 (ssDNA)
# DNA: TTTTTT
# B4: T30 (ssDNA)
# DNA: TTTTTTTTTTTTTTTTTTTTTTTTTTTTTT
# B5: T18 (ssDNA)
# DNA: TTTTTTTTTTTTTTTTTT
# B6: T16 (ssDNA)
# DNA: TTTTTTTTTTTTTTTT
# Key:
# [1] = target: E1 helicase domain of bovine papillomavirus type-1 (BPV-1) E1 (bovine papillomavirus type-1 (BPV-1)); experiment: SEC
# [2] = target: E1 helicase domain of bovine papillomavirus type-1 (BPV-1) E1 (bovine papillomavirus type-1 (BPV-1)); experiment: SEC + other: glycerol gradient sedimentation
# [3] = target: T1, E1HD (E1 helicase domain) (bovine papillomavirus type 1 (BPV-1), UniProt P03116 299-605); experiment: EMSA
# T1 sequence (P03116 299-605): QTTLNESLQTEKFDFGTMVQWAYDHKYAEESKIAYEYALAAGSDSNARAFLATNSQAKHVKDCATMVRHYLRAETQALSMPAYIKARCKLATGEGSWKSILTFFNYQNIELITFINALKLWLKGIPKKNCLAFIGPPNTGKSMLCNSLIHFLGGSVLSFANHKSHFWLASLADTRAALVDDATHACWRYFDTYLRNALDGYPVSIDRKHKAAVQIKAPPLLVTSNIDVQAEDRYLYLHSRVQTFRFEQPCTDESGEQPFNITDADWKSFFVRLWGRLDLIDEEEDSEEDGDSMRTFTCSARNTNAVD
# [4] = target: T1, E1HD (E1 helicase domain); experiment: EMSA; remark: listed apart in the source
# [5] = target: T1, E1HD (E1 helicase domain); experiment: EMSA; remark: listed apart in the source
# [6] = target: T1, E1HD (E1 helicase domain); experiment: EMSA; remark: listed apart in the source
# [7] = target: T1, E1HD (E1 helicase domain); experiment: EMSA; remark: listed apart in the source
# [8] = target: T1, E1HD (E1 helicase domain); experiment: gel filtration
molecule,measurement,setting,value
E1 helicase domain of bovine papillomavirus type-1 (BPV-1) E1 (domain or fragment),percent of protein oligomeric,[1],40%
same,stoichiometry N,[1],6
same,stoichiometry N,[2],6
B1,binding result,[3],binds
B2,binding result,[4],binds
B3,binding result,[5],no binding
B4,Kd,[6],1830 ± 290 nM
same,Kd,[7],297 ± 7 nM
B5,binding result,[8],binds
B6,binding result,[4],binds
